In this test the target is 融合蛋白gD-CD2v (猪伪狂犬病病毒 PRV HN1201; 非洲猪瘟病毒 ASFV SY18).

B1: 非洲猪瘟病毒CD2v蛋白单克隆抗体5G8 (antibody, V domains shown)
VH: YDHDYAKLGTELGSTSNGRQCAGIALTSRMKLWLNWVKQSHGKSLEWIGVIDPNNGGTTYNQKFKGKATLTVDKSSSTAYMEVRSLTSEYSAVYYCARYGKGIGLDYWGQGTSVTVSS
VL: DVVMTQTPLSLPVSLGDQASISCRSSQSLVHRNGNTYLHWYLQKPGQSPKLLIYKVSNRFSGVPDRFSGSGSGTDFTLKISRVEAVDLGVYFCSQSTHVPWTFGGGTKLEIK
For B1, the 阻断率 was 91 %.

Source of the values: CN117007808A.
